B1: pUB3-P1 probe (EPUB3) (dsDNA)
DNA 1: GCCGAGGGCTTTTTGTAGACGCCAGGTACTTGCGCTTGTGGCGGCGAGCCGAGCG
DNA 2: CGCTCGGCTCGCCGCCACAAGCGCAAGTACCTGGCGTCTACAAAAAGCCCTCGGC
B2: KRN4-P4 probe (EP4) (dsDNA)
DNA 1: GCGTGTTGCCTACTTGCACTAGAGAGTACGTGAGGCAAACCAAATGTTTTCTAGCGAAC
DNA 2: GTTCGCTAGAAAACATTTGGTTTGCCTCACGTACTCTCTAGTGCAAGTAGGCAACACGC

Molecular target: T1, UB2 (UNBRANCHED2), GST fusion (Zea mays, UniProt A0A804LTB0 =M+82-402, internal_change)
T1 sequence: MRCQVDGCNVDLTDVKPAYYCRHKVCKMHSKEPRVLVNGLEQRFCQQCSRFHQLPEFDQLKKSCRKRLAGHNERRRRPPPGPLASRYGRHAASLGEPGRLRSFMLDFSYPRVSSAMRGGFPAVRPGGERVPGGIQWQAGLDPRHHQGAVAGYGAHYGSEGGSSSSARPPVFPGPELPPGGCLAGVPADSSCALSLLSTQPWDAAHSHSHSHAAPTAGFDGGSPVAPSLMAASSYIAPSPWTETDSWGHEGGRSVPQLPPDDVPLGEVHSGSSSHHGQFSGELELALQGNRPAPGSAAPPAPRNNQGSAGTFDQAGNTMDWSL
Test: EMSA; poly(dI-dC), 5 mM MgCl2; EMSA: 10 mM Tris pH 7.5, 50 mM KCl, 1 mM DTT, 5 mM MgCl2, 2.5% glycerol, poly(dI-dC), 0.05% NP-40; 20-40 ng protein, probe 10 fM (so in the source); room temperature
Conditions: protein: recombinant; tags: N-GST (pGEX-4T-1); label: 5'-biotin; blunt

Row | Binder | binding result
1 | B1 | binds
2 | B2 | binds

Reference: PMC7202667, “UNBRANCHED3 Expression and Inflorescence Development is Mediated by UNBRANCHED2 and the Distal Enhancer, KRN4, in Maize”
